{"source": "patent US6500670", "proteins": {"B1": {"name": "Arabidopsis thaliana pyruvate dehydrogenase kinase (PDHK) fusion protein, product of clone YA5 expressed in E. coli from construct pZTa5 (pTrcHisB vector) (protein)", "chain": "MAVKKACEMFPKSLIEDVHKWGCMKQTGVSLRYMMEFGSKPTERNLLISAQFLHKELPIRVARRAIELQTLPYGLSDKPAVLKVRDWYLESFRDMRAFPEIKDSGDEKDFTQMIKAVKVRHNNVVPMMALGVNQLKKGMNSGNLDEIHQFLDRFYLSRIGIRMLIGQHVELHNPNPPLHTVGYIHTKMSPMEVARNASEDARSICFREYGSAPEINIYGDPSFTFPYVPTHLDLMMYELVKNSLRAVQERFVDSDRVAPPIRIIVADGIEDVTIKVSDEGGGIARSGLPRIFTYLYSTARNPLEEDVDLGIADVPGTMGGYGYGLPISRLYARYFGGDLQIISMEGYGTDAYLHLSRLGDSQEPLP"}}, "biological_target": "T1, human pyruvate dehydrogenase E1alpha/E1beta subunit complex, co-expressed in and purified from E. coli M15, P08559", "T1 chain 1": "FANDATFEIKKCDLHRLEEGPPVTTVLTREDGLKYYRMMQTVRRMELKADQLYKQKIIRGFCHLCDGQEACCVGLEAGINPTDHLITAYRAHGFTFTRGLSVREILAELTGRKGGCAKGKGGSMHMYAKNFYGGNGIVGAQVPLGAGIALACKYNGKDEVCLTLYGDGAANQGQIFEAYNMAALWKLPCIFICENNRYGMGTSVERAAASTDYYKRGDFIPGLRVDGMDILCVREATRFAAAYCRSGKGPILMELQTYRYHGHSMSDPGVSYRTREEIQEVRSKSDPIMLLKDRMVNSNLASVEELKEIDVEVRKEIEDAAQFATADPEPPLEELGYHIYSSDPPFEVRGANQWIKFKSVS", "T1 chain 2": "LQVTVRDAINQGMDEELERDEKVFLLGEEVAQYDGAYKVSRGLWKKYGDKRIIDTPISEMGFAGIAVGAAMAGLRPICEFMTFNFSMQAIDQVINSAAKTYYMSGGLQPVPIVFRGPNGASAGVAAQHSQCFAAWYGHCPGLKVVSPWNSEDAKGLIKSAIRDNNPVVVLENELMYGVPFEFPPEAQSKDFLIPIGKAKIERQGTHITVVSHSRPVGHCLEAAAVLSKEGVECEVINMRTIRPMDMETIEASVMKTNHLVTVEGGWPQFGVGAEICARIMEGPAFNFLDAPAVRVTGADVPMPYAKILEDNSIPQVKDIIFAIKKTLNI"}
{"protein": "B1", "values": [{"measurement": "in vitro phosphorylation (incorporation of 32P from gamma-32P-ATP into the E1 subunit; SDS-PAGE and autoradiography; 2, 5, 10, 15, 20 min)", "value": "time-dependent (incubation times of 2, 5, 10, 15, or 20 min) in vitro phosphorylation of the E1α/E1β complex substrate by the action of the plant PDHK (clone YA5) fusion protein"}]}
